Laboratory results published in the nanobody polyreactivity screen of Harvey et al. (2022).

Experiment: yeast display, Sf9 membrane polyspecificity reagent, FACS + sequencing; frameworks hold sequencing errors
Summary of the method: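 Polyreactivity labels are assigned by the sorting gate from which each nanobody was recovered. The gates were low and high (top ~1%), set on anti-HA fluorescence for expression and streptavidin fluorescence for reagent binding. Before sorting, galactose-induced (36–48 hours) yeast display cells were stained for 1 hour at 4 °C with 10% biotinylated, detergent-solubilized Sf9 membrane reagent.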

Row | Sequence | polyreactivity (PSR sort gate)
1 | QVQLVESGGGLVQAGGSLRLSCAASGRIFLTKAMGWYRQAPGKERELVADISRGGSTYADSVKGRFTISRDNAKNTVYLQMNSLKPEDTAVYYCAADEYSPGDSRTRYDYWGQGTQVTVSS | low polyreactivity
2 | QVQLVESGGGLVQAGGSLRLSCAASGRIFLTNAMGWYRQAHGKERELVADISRGGSTYADSVKGRFTISRDNAKNTVYLQMNSLKPEDTAVYYCAADEYSPGDSRTRYDYWGQGTQVTVSS | low polyreactivity
3 | QVQLVESGGGLVQAGGSLRLSCAASGRIFLVYAMGGSRQAPGKDRELVAAISWSTGSTYYADSVKGRFTISRDNAKNTVYLQMNSLKPEDTAVYYCAAEPELDEYEHDYWGQGTQVTVSS | low polyreactivity
4 | QVQLVESGGGLVQAGGSLRLSCAASGRIFLVYAMGWSRPAPGKERELVAAISYSGGRTYYADSVKGRFTISRDNAKNTVYLQMNSLKPEDTAVYYCAASPRYSYLAQGLDYDYWGQGTQVTVSS | high polyreactivity
5 | QVQLVESGGGLVQAGGSLRLSCAASGRIFLWYAMGWSRQAPGKERELVAGISSGASTYYADSVKGRFTISRDNAKNTVYLQMNSLKPEDTAVYYCAAPYDRLTGWSRYDYWGQGTQVTVSS | high polyreactivity
6 | QVQLVESGGGLVQAGGSLRLSCAASGRIFLWYAMGWYRQAPGKERELVAAISSGGSTKYADSVKGRFTISRDNAKNTVYLQMNSLKPEDTAVYYCAATRKYSYVTYYYWGQGTQVTVSS | high polyreactivity
7 | QVQLVESGGGLVQAGGSLRLSCAASGRIFLWYAMGWYRQAPGKERELVASITRSGVTTYYADSVKGRFTISRDNAKNTVYLQMNSLKPEDTAVYYCAAELYGWSGDTNDYWGQGTHVTVSS | low polyreactivity
8 | QVQLVESGGGLVQAGGSLRLSCAASGRIFLYNAMAWYRQAPGKERELVASISSGDTTNYADSVKGRFTISRDNAKNTVYLQMNSLKPEDTAVYYCNAEYGTPYSWFDYWGQGTQVTVSS | low polyreactivity
9 | QVQLVESGGGLVQAGGSLRLSCAASGRIFLYNAMGWYRQAPGKEREFVATISYSGGRTNYADSVKGRFTISRDNAKNTVYLQMNSLKPEDTAVYYCAARWPWFYAHAYDYWGQGTQVTVSS | high polyreactivity
10 | QVQLVESGGGLVQAGGSLRLSCAASGRIFLYNAMGWYRQAPGKERELVASISSGDTTNYADSVKGRFTISRDNAKKTVYLQMNSLKPEDTAVYYCAADGQYSVIVKYDSWGQGTQVTVSS | low polyreactivity
11 | QVQLVESGGGLVQAGGSLRLSCAASGRIFLYYTMGWYRQAPGKERELVADITWRGGSTYYADSVKGRFTISRDNAKNTVYLQMNSLKPVDTAVYYCNAVSVSSNRSDYWGQGTQVTVSS | low polyreactivity
12 | QVQLVESGGGLVQAGGSLRLSCAASGRIFLYYTMGWYRQAPGKERELVATIRSGDSTNYADSVKGRFTISRDNAKNTVYLQMNSLKPEDTAVYYCAADWDIFQQGANGAPYDYWGQGTQVTVSS | low polyreactivity
13 | QVQLVESGGGLVQAGGSLRLSCAASGRIFNANAMGWYRHAPGKERELVAAISSSGGSTYYADSVKGRFTISRDNAKNTVYLQMNSLNPEDTAVYYCNADWGWRYSSDFDYWGQGTQVTVSS | low polyreactivity
14 | QVQLVESGGGLVQAGGSLRLSCAASGRIFNAYAMGWYRQAPGKERELVAAISRSGGRTYYADSVKGRFTISRDNAKNNVYLQMNILKPEDTAVYYCAKDFFEHSPVSHTYSSSKYDYWGQGTQVTVSS | low polyreactivity
15 | QVQLVESGGGLVQAGGSLRLSCAASGRIFNEYGMGWYRQAPGKERELVAAITDGTTTYYADSVKGRFTISRDNAKNTVYLQMNSLKPEDTAVYYCAASSTWYGYYIFVFRAYDYWGQGTQVTVSS | low polyreactivity
16 | QVQLVESGGGLVQAGGSLRLSCAASGRIFNFYAMGWYRQAPGKERELVASITGSTGSTYYADSVKGRFTISRDNAKNTVYLQMNSLKPEDTAVYYCNTYRVTRDYYWGQGTQVTVSS | low polyreactivity
17 | QVQLVESGGGLVQAGGSLRLSCAASGRIFNFYAMGWYRQAPGKERELVASITSGGRTSYADSVKGRFTISRDNAKNTVYLQMNSLKPEDTAVYYCAAKSPLKTYYFTSFRYYYWGQGTQVTVSS | high polyreactivity
18 | QVQLVESGGGLVQAGGSLRLSCAASGRIFNGYAMGWYRQAPGKERELVASITSAGSTYFADSVTGRVTISRDNAKNTVYVQMNRLKPEDTAVYYCAADSYSVYYYTYDSWGQGTQVTVSS | low polyreactivity
19 | QVQLVESGGGLVQAGGSLRLSCAASGRIFNGYPIGWYIQAPGKEREFVATISRSGGCTYYADSVKGRFTISRDNAKNTVYLQMISLKPEDTAVYYCAKTYPAKWEYDYWGQGTQVTVSS | low polyreactivity
20 | QVQLVESGGGLVQAGGSLRLSCAASGRIFNIYAMGWYRQAPGKERELVAAIRWNGGSTYYADSVKGRFTISRDNAKNTVYLQMNSLKPEDTAVYYCAARHPLYRVQHEYWGQGTQVTVSS | low polyreactivity
21 | QVQLVESGGGLVQAGGSLRLSCAASGRIFNKNAMGWYRQPPGKEREFVAAISRSGGRTYYADSVKGRFTISRDNAKNTVYLQMNSLKPEDPAVYFCAAEYRGVPRVVVDYDYWGQGTQVTVSS | high polyreactivity
22 | QVQLVESGGGLVQAGGSLRLSCAASGRIFNLYAMGWYRQAPGKERELVAAIRGRGTSTYYADSVKGRFTISRDNAKNTVYLQMNSLKPEDTAVYYCATTSRELGELRIFDYWGQGTQVTVSS | low polyreactivity

Row | Sequence | polyreactivity (PSR sort gate)
23 | QVQLVESGGGLVQAGGSLRLSCAASGRIFNLYAMGWYRQAPGKERELVAAISSGGSTYYADSVKGRFTISRDNAKNTVYLQMNSLKPEDTAVYYCAAKNGDRYARGYWGQGTQVTVSS | high polyreactivity
24 | QVQLVESGGGLVQAGGSLRLSCAASGRIFNLYAMGWYRQAPGKERELVAAISWRGGSTYYADSVKGRFTISRDNAKNTVYLQMNSLKPEDTAVYYCAATFFTYVYRYYYWGQGTQVTVSS | high polyreactivity
25 | QVQLVESGGGLVQAGGSLRLSCAASGRIFNNYAMGWYRQAPGKERELVASITSGGSTNYADSVKGRFTISRDNAKNTVYLHMNSLKPEDTAVYYCNAPRGNRYHTGGYWGQGTQVTVSS | low polyreactivity
26 | QVQLVESGGGLVQAGGSLRLSCAASGRIFNQYGMGWYRQAPGKERELVAAIRSGDSTNYADSVKGRFTISRDNAKNTVYLQMNSLKPVDTAVYYFNAYLSPKQPLSPPDPTFEGGYWGQGTQVTVSS | low polyreactivity
27 | QVQLVESGGGLVQAGGSLRLSCAASGRIFNRNAMGWYRQAPGKERELVAAISSSGGSTYYADSVKGRFTISRDTAKNTVYLQMNSLKPEDTAVYYCAAVTQSYGYYYWGQGTQVTVSS | high polyreactivity
28 | QVQLVESGGGLVQAGGSLRLSCAASGRIFNRNAMGWYRQAPGKERELVAAITRGGRTNYADSVKGRFTISRDNAQNTVYLHMNSLKPEDTAVYYCAAAYYGSHCRYDYWGQGTQVTVSS | high polyreactivity
29 | QVQLVESGGGLVQAGGSLRLSCAASGRIFNRNAMGWYRQAPGKERELVATISFNDGSTYYADSVKGRFRISRDIAKNTVYLQMNSLKPEDTAVYYCAKEGYVFEYDYWGKGTQVTVSS | low polyreactivity
30 | QVQLVESGGGLVQAGGSLRLSCAASGRIFNRYAMGWYRQAPGKERELVAAINYRGSSTYYADSVKGRFTISRDNAKNTGYLQMNSLKPEVTAVYYCKTYGQTDTYWRYYYWGQGTQVTVSS | high polyreactivity
31 | QVQLVESGGGLVQAGGSLRLSCAASGRIFNRYAMGWYRQAPGKERELVAAISASGDNTYYADSVKGRFTISRDNAKKNVYLQMNSLKPEDTAVYYCAARYYTYLHFRMYYWGQGTQVTVSS | high polyreactivity
32 | QVQLVESGGGLVQAGGSLRLSCAASGRIFNSYAMGCYRQAPGKERELVAAINWTDVSTYYADSVKGRFTISRDNAKNTVYLQMNSLKPEDTAVYYCAAVRWGSYTLSDDYWGQGTQVTVSS | low polyreactivity
33 | QVQLVESGGGLVQAGGSLRLSCAASGRIFNWYGMGWYRQAPGKERELVATISSSGDSTYYADSVKGRFTISRDNAKNTVYLQMNSLKPEDTAVYYCAKRARYKFGYWGQGTQVTVSS | high polyreactivity
34 | QVQLVESGGGLVQAGGSLRLSCAASGRIFNYNALGWYRQAPGKESELVATITYIGTGTYYADSVKGRFTISRDNAKTTVYLQMNSLKPEDTAVYYCAASYRSRVWWRFDYWGQGTQVTVSS | high polyreactivity
35 | QVQLVESGGGLVQAGGSLRLSCAASGRIFNYYAMGSYRQAPGKERDLVAAITSRGGSTYYADSVKGRFTISRDNAKNTVYLQMNSLNPEDTAVYYCNTRVWYPGTIHPVDYWGQGTQVTVSS | low polyreactivity
36 | QVQLVESGGGLVQAGGSLRLSCAASGRIFNYYAMGWYRLAPGKERELVAAINSGGSTYADSVKGRFTISRDNAKNTVYLEMNSLKPEDTAVYYCANDGQLQSGRERPSGYDHWGQGTQVTVSS | low polyreactivity
37 | QVQLVESGGGLVQAGGSLRLSCAASGRIFNYYAMGWYRQAPGKEMELVAVITYSAGRTYYADSVKGRFTISRDNAKNTVYLQMNSLKPEDTAVYYCNADGWVSVSKHYYYWGQGTQVTVSS | low polyreactivity
38 | QVQLVESGGGLVQAGGSLRLSCAASGRIFNYYAMGWYRQAPGKERELVAAINSGGSTYADSVKGRFTISRDNAKNTVYLQMNSLKPEDTAVYYCAKDGQLQSGRERPSGYDHWGQGTQVTVSS | low polyreactivity
39 | QVQLVESGGGLVQAGGSLRLSCAASGRIFNYYAMGWYRQAPGKERELVAAINWSGVRTYYADSVKGRFTISRDNAKNTVYLQMNSLKPEDTEVYYCARDAGAAYGYYSWGQGTQVTVSS | high polyreactivity
40 | QVQLVESGGGLVQAGGSLRLSCAASGRIFNYYAMGWYRQAPGKERELVASITSRGGTTYYADSVKGRFTISRDKAKKTVYLQMNSLIPEDTAVYYCAAFTRPVSRRSRMNYWGQGTQVTVSS | high polyreactivity
41 | QVQLVESGGGLVQAGGSLRLSCAASGRIFPAYVMGWYRQAHGKERELVATIDNGGGTYYADSVKGRFTISRDNAKNTVYLQMNSLKPEDTAVYYCARDRHVRWGLKMDYSGQGTQVTVSS | low polyreactivity
42 | QVQLVESGGGLVQAGGSLRLSCAASGRIFPDNAMGWYRQAHGKERELVAVITYSGGSTYYADSVKGRFTISRDNAKNTVYLQMNSLKPEDTAVYYCAARDYYIWFAEVDYWGQGTQVTVSS | low polyreactivity
43 | QVQLVESGGGLVQAGGSLRLSCAASGRIFPDYAMGWYRQAPGKERELVAAISSSGGRTYYADSVKGRFTISRDNAKNTVYLQMNSLKPEDTAVYYCAARGSYTSIFDYWGQGTQVTVSS | high polyreactivity
